The text below walks through data of patent publication US20160289747, “DETECTION OF NUCLEIC ACIDS BY STRAND INVASION BASED AMPLIFICATION” (ORION DIAGNOSTICA OY, published 2016).

Sequences and labels used below:
T1: gp32 single-stranded DNA binding protein (Enterobacteria phage T4, UniProt P03695 P03695:1-301)
T1 sequence: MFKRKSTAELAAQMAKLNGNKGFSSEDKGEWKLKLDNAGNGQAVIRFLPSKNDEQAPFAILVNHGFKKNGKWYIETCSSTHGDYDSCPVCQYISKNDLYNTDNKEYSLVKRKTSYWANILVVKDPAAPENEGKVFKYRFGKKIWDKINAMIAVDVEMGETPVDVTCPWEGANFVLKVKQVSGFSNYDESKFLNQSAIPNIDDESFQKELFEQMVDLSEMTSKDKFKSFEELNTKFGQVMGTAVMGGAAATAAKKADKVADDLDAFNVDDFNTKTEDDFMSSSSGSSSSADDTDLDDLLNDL

T2 sequence (P04529 whole entry, one chain of several): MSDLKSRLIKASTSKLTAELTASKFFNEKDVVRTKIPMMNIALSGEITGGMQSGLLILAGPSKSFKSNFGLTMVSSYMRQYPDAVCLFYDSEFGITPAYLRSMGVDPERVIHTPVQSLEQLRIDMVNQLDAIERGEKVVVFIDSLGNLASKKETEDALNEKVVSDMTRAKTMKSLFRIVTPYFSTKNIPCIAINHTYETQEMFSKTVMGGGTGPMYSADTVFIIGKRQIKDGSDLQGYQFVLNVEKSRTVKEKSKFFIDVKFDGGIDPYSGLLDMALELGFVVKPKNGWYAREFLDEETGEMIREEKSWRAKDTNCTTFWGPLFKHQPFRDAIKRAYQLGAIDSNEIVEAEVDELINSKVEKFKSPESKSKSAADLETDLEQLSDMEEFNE
T3 sequence (P0A7G6 2-353, one chain of several): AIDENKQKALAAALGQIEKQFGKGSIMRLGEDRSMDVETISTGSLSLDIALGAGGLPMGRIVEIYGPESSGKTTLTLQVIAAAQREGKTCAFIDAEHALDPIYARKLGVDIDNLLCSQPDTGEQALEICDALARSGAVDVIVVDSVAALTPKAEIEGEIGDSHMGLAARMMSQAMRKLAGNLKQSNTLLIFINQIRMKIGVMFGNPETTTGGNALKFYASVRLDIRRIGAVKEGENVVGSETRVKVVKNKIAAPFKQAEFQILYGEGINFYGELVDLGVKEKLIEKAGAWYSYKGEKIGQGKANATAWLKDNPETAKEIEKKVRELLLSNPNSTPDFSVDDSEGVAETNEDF

The target of the first data set is T1, gp32 single-stranded DNA binding protein. Briefly: little or no fluorescence increase. Particulars: tags: New England Biolabs; label: fluorophore and quencher. The protocol:
(§1) The effect of the single-strand binding protein, bacteriophage T4 gp32 (New England Biolabs), on signal from the same oligonucleotide probes used with UvsX was also elucidated. Similar concentrations of oligonucleotide probes to those used with UvsX were incubated in the presence or absence of 0.25 mg/ml of gp32 and 200 nM complementary template ((SEQ ID NO: 34 for probes with SEQ ID NO 1-8 or SEQ ID NO: 44 for probes with SEQ ID NO: 9 or 10) in a buffer containing 20 mM Tris-acetate pH 7.9, 50 mM potassium acetate, 10 mM Magnesium Acetate and 1 mM DTT.
Turning to AGCCGAUGACUAAUGC (ssRNA, 2'-F) [2'-fluoro RNA 16], the binding result is “no binding”.
ACGAAAGCCGAUGACUAAUGC (ssRNA, 2'-OMe) [2'-O-methyl RNA 21]: the binding result is given as “no binding”.
The same measure, in the same setting: then AGUUGAUGUGUA (XNA, LNA) [LNA 12], with “no binding”.
On the same count and under the same terms, the same measure for AGCCGAUGACUAAUGC (ssRNA, 2'-OMe) [2'-O-methyl RNA 16]: “no binding”.
The same measure, in the same setting: then ACGAAAGCCGAUGACUAAUGC (ssRNA) [RNA 21], with “no binding”; and ACGAAAGCCGAUGACUAAUGC (ssRNA, 2'-F) [2'-fluoro RNA 21], with “no binding”; and AGCCGAUGACUAAUGC (ssRNA) [RNA 16], with “no binding”.

A further data set has as its target T2, UvsX recombinase (Enterobacteria phage T4, UniProt P04529 P04529:1-391). Briefly: fluorescence dequenching; 5 uM UvsX, Mg, ATP, 40 C. Particulars: label: fluorophore and quencher. As to the method:
(§2) The oligonucleotide probes were incubated in the presence or absence of 200 nM complementary template (SEQ ID NO: 34 for probes with SEQ ID NO 1-8, or SEQ ID NO: 44 for probes with SEQ ID NO 9 or 10) and 5 μM UvsX in buffer containing 20 mM Tris-acetate pH 8.0, 10 mM Magnesium acetate, 2 mM ATP, 60 mM Tris-Phosphocreatine and 0.025 U/μl Creatine Kinase. Fluorescence was measured after 20 minutes incubation at 40 degrees centigrade.
As for ACGAAAGCCGATGACTAATGC (ssDNA) [DNA 21], the binding result is on record as “binds”.
Still for that read-out and setting: the same measure for AGCCGATGACTAATGC (ssDNA) [DNA 16]: “binds”.

A further data set concerns the target T3, RecA (Escherichia coli, UniProt P0A7G6 P0A7G6:2-353). Briefly: no significant fluorescence increase; Mg, ATP. The settings on record: tags: New England Biolabs; label: fluorophore and quencher. The protocol: (§3) The effect of Escherichia coli recombinase, RecA (New England Biolabs) on signal from oligonucleotide probes was also elucidated (FIG. 1d). Similar concentrations of oligonucleotide probes to those used in FIGS. 1a and 1b were incubated in the presence or absence of 100 μg/ml of RecA in a buffer containing 70 mM Tris-HCl pH 7.6.10 mM MgCl₂, 5 mM DTT and 10 mM ATP. […] However, the increase was not as high as that seen with T4 UvsX.
In the case of ACGAAAGCCGAUGACUAAUGC (ssRNA, 2'-OMe) [2'-O-methyl RNA 21], the binding result was “no binding”.
On the same count and under the same terms, the same measure for AGUUGAUGUGUA (XNA, LNA) [LNA 12]: “no binding”.
On the same count and under the same terms, then ACGAAAGCCGAUGACUAAUGC (ssRNA) [RNA 21], with “no binding”; and ACGAAAGCCGAUGACUAAUGC (ssRNA, 2'-F) [2'-fluoro RNA 21], with “no binding”.

The next data set addresses T1, gp32 single-stranded DNA binding protein. Briefly: fluorescence dequenching; 0.25 mg/ml gp32, Mg, K acetate. Particulars: tags: New England Biolabs; label: fluorophore and quencher. As to the method:
as §1
As for ACGAAAGCCGATGACTAATGC (ssDNA) [DNA 21], the binding result is “binds”.
The same measure, in the same setting: then AGCCGATGACTAATGC (ssDNA) [DNA 16], with “binds”.

A further data set deals with T3, RecA. Briefly: fluorescence increase, less than UvsX; Mg, ATP. Particulars: tags: New England Biolabs; label: fluorophore and quencher. As to the method:
as §3
For the molecule ACGAAAGCCGATGACTAATGC (ssDNA) [DNA 21], the binding result is listed as “binds”.

The next data set has as its target T2, UvsX recombinase. As to the kind of experiment: probe remained quenched; Mg, ATP, 40 C. Particulars: label: fluorophore and quencher. The protocol:
as §2
Consider AGCCGAUGACUAAUGC (ssRNA, 2'-F) [2'-fluoro RNA 16], for which the binding result is “no binding”.
Still for that read-out and setting: the same measure for ACGAAAGCCGAUGACUAAUGC (ssRNA, 2'-OMe) [2'-O-methyl RNA 21]: “no binding”.
For the molecule AGUUGAUGUGUA (XNA, LNA) [LNA 12], the binding result is on record as “no binding”.
AGCCGAUGACUAAUGC (ssRNA, 2'-OMe) [2'-O-methyl RNA 16]: the binding result is listed as “no binding”.
On the same count and under the same terms, the same measure for ACGAAAGCCGAUGACUAAUGC (ssRNA) [RNA 21]: “no binding”; for ACGAAAGCCGAUGACUAAUGC (ssRNA, 2'-F) [2'-fluoro RNA 21]: “no binding”; for AGCCGAUGACUAAUGC (ssRNA) [RNA 16]: “no binding”.
